Assay results from the RNAGym collection of RNA variant scans (doi:10.7554/elife.80360).

B1: HDV Ribozyme (parent)
chain: GGCCGGCAUGGUCCCAGCCUCCUCGCUGGCGCCGGCUGGGCAACAUUCCGAGGGGACCGUCCCCUCGGUAAUGGCGAAUGGGACCCA

Variants of: B1
Test: self-cleavage, relative activity (ratio to wild type); higher = more cleavage; co-transcriptional

Variant	self-cleavage
C21A A77G	0.0678
G28A C57A	0.0978
C44G	0.753
U20G C32A	0
G35U G50A	0.472
G35U G50C	0.443
C44U U79C	0.269
U46A U79G	0.322
C18U C24A	0.123
G81U A83C	0.0821
C3A C21U	0.0314
G25C C41A	0.0898
A78C U79G	0.113
C75A C84G	0.0707
G2A G35A	0.0569
G25C U65C	0.0536
C14A G39A	0.177
C19U C62U	0.244
A43G A51C	0.745
G73U A78G	0.332
G80A G82C	0.0978
C14U U47G	0.939
C49A U69A	0.808
A43U G80A	0.0237

Variant	self-cleavage
G2U U47A	0
G40U A43U	0.146
G34C C84A	0
C63U G82A	0.534
C3A G76C	0.604
C3G C15U	0.532
C21A U47A	0.0462
U12C G29C	0.0462
C33G C41A	0.185
C61G U65G	0.72
G10C C41G	0.437
G1C G28A	0.0405
C19U G38C	0.0875
C64U U65A	0.984
G59C C85G	0.955
U27C C63A	0.883
C15G U60C	0.7
G38A G40C	0.138
G59U C66G	0.981
G29A A43U	0.0252
C49G G53C	0.249
C24A G82C	0.249
C24A C41A	0.369
C14U G39A	0.284

Variant	self-cleavage
C3U A16C	0.437
A45G A70U	1.09
U23G C66U	0.65
G38A G53C	0.0678
C24A G80A	0.131
G6A C15A	0.375
C58U G80U	0.132
G35A C44G	0.0639
C21U G28U	0
G35U A71G	0.308
G2A G55U	0.271
G35C U65G	0.314
C33A G76C	0.251
C3G U23A	0.929
G1U C36G	0.306
C13A U20C	0.0405
C19G A51G	0.0361
G54A G74U	0.562
U69A G80C	0.38
C41U C84A	0.78
G67U U79G	0.516
U23G G35U	0.283
C66G U69A	0.917
G38A U60G	0.0386

Variant	self-cleavage
G38A U60C	0.0272
C22A C48U	0.433
C30A G54U	0.5
G11U U46G	0.285
U12C G55U	0.59
U20A G38A	0.0332
C18A A43U	0.0339
G29A C30A	0.0264
G29A C30U	0.095
C41U A77U	0.475
C44U G68U	0.607
U47G G68C	0.499
G59C G82C	0.522
U9C A78U	0.185
G5A A71G	0
G1C C57U	0.252
G50U C61A	0.986
G1A C61A	0.145
G17A G29A	0.128
C22U G29C	0.0405
A43U G74U	0.684
A42U A45C	0.361
U20G U47C	0.133
C36G A87G	0.138

Variant	self-cleavage
A77U G80A	0.0923
G6U A51C	0.656
A16C C63U	0.895
U23C U65A	1.09
C3G C86G	1.14
C33U U46G	0.65
C19A G50U	0.254
A77G A83U	0.635
C15G C33U	0.415
C15G C61U	0.434
U9A A87C	1.04
U20A A42C	0.0594
C30A A83G	0.127
U60A C75G	0.0978
C18G G68A	0.0504
C36A C58G	0.119
C13U G54A	0.739
C19G U79C	0.0264
C58U C85U	0.945
G38U G40U	0.19
G2A A56G	0.242
C3G G34U	0.323
C24U G28U	0.119
C33G U69C	0.277

Variant	self-cleavage
G5U C63U	0.38
G28C C86A	0.0583
G5A C33U	0.831
U20A G59C	0.0475
A8C C86U	0.862
U20C G82A	0.0462
G1A A16C	0.158
C49G A56U	0.96
G6C C48A	0.443
G6U U46G	0.123
G39C C75U	0.0583
U37C C85A	1.16
C19G A45C	0.0583
U20G A70C	0.217
G29U G34A	0.111
G11C C75A	0.0536
G55U C64U	1.05
C7A C41G	0
G17A C61G	0.406
A42U C62A	0.618
A42U C62G	0.6
G38C A77G	0.0536
G1A C66U	0.353
A70G C75A	0.201

Variant	self-cleavage
A16U G54A	0.795
A45U G74C	0.0923
G1U U20G	0.285
G11A C84A	0.787
G5A G40U	0.119
A45C U72C	0.481
G17A C62A	0.886
A43C C58U	0.671
C4U G76A	0.443
G6C C62U	0.193
C24G C33G	0.0475
G39A A78G	0.131
A45C G52A	0.684
A8G G17A	0.629
U27A U37G	0.119
U9G A45G	0.684
A8U C15A	0.369
C75U A77G	0.0415
G25C G50C	0.156
C22G C61G	0.104
U37A A56C	0.229
G54A C86G	1.07
G54C C63G	0.831
G53U G59U	0.899

Variant	self-cleavage
C44G A56G	0.886
G1A G28A	0.0332
C57U C85A	0.698
G59C U69A	1.27
U46C G81C	0.302
C3U G10C	0.762
A51C G81C	0.193
C26G U65A	0.655
G6A G11C	0.222
G35U A51U	0.471
U23C C85A	1.01
C58A C86G	0.909
C15U A16U	1.26
U27C C57U	0.707
A8C A51C	0.802
G80C G82A	0.0824
G39C A56U	0.13
G35U U37C	0.428
G17A	0.718
C36U U47G	0.665
A16G A45G	0.772
U60G C75U	0.231
C64A G81U	0.379
G10A G38C	0.0692

Variant	self-cleavage
A43U A56C	0.374
G67C U79C	0.305
G29C C44A	0.0554
C32A G76U	0.302
U12A A16G	0.383
C15A U47A	0.522
C75G G82C	0.271
U23A C44U	0.566
U12A C30G	0.131
A16U U20G	0.0791
G31U A56C	0.389
G53C U72C	1.02
G6A C14A	0.237
G31C G53A	0.572
G5A A8G	0.0692
G11A C18G	0.041
U9G U79G	0.923
U20G G53C	0.262
U12A G39U	0.0489
G38C C63U	0.194
C24G C36U	0.0627
U37A A45G	0.125
U37A A70U	0.196
C15U C84A	0.81

Variant	self-cleavage
A16U C30A	0.201
G68A C86U	0.965
A16G G53C	1.11
A8U C75A	0
A77G C86U	0.886
C48G C84G	0.646
U46A U65G	0.675
G2A G6C	0
C26U G76U	0.963
C49A C85A	1.13
C22U A77G	0.369
C3U C49A	0.843
G6A G55C	0.791
C30U U72G	0.128
G25C U27A	0.175
C41G A51C	0.635
A45C G74U	0.369
C4G C48A	0.59
G31U U79A	0.148
G39C G52A	0.218
U12C G74A	0.0519
G5U U23A	0.578
G34U G50A	0.312
U9G C62G	0.462

Variant	self-cleavage
A42U C49A	0.53
U12G G29U	0.0489
U37G A71U	0.0594
C14A G67U	0.532
G31U A43C	0.0504
U20C G50C	0.312
G50U U72C	0.487
G1U A56G	0.521
G6C C32U	0.63
G55U	1.01
G5C A42U	0
C26G U46C	1.15
G6A U9C	0.795
C49U G54U	0.87
C18A C64G	0.0678
C15U U27A	0.63
G31C A56C	0.325
G1U A45U	0.441
C61G C85G	0.906
G5U U27C	0.0978
U20G A87G	0.282
G39U U79G	0.277
A16C G74C	0.185
C22U U79A	0.0923

Variant	self-cleavage
C22A G31C	0
C18A G31A	0.0898
C13A U46C	0.203
C15U G40A	0.972
C3G C44G	0.0707
G6C G54U	0.231
C22G U72G	0.0554
C15U A87U	0.993
C30U A78U	0.101
C18U C75U	0.134
A83U A87C	0.751
G25U G67U	0.305
C24G U46G	0
C26G G81A	0.77
U69C A83U	0.431
G29U C48G	0.106
C64G A78U	0.18
G67U G68U	0.76
C13A G39A	0.121
G39A C84A	0.415
C22A U69A	0.284
C15U C26G	0.867
U27G C66U	1.02
U37G C41A	0

Variant	self-cleavage
C21A C26A	0.0739
G28A C62A	0.0297
G6A C36A	0
C4G U23A	0.47
G28A G31U	0.133
C15G A87G	0.543
C49U U79G	0.688
C30A G59A	0.561
U47G U60C	0.767
G54C G73A	0.565
G38C A56U	0.262
G55U A71U	0.786
G34U A51G	0.339
G29U U37C	0.208
C22G C85A	0
G54U U60C	1
C19G C84G	0.0941
G82U C84A	0.261
G25A C61U	0.225
C36U U65G	0.582
A45U C64A	0.882
U20G U23G	0.185
G54A A56U	0.878
G6A U20C	0.158

Variant	self-cleavage
G38C G67C	0.157
C61G A83U	0.151
C36G G81U	0.114
G31A A43C	0.106
A45C C64A	0.426
G11C G74C	0
C30A	0.547
C57A C84U	0.935
C30U A77C	0.181
C15U G80A	0.992
C48U C75U	0.211
A43U G82C	0
A56C C75A	0.116
C15G G52U	0.684
C13U G25U	0
A43C	0.498
A56U C64G	0.882
U23G G59A	0.708
A8G G39A	0.302
U20G U72G	0
C44U C86U	0.886
G29A A70G	0.17
